According to patent US20030105008A1 (BRIGHAM AND WOMEN S HOSPITAL, published 2003):

T1: ORC2+3 core complex (human, UniProt Q13416 1-577; Q9UBD5 1-711)
T1 construct: Untagged ORC2 and ORC3 co-expressed in Sf9 cells with a GST-tagged third subunit; also called ORC2+3 subcomplex; ORC2-3 complex
T1 sequence (looked up) 1: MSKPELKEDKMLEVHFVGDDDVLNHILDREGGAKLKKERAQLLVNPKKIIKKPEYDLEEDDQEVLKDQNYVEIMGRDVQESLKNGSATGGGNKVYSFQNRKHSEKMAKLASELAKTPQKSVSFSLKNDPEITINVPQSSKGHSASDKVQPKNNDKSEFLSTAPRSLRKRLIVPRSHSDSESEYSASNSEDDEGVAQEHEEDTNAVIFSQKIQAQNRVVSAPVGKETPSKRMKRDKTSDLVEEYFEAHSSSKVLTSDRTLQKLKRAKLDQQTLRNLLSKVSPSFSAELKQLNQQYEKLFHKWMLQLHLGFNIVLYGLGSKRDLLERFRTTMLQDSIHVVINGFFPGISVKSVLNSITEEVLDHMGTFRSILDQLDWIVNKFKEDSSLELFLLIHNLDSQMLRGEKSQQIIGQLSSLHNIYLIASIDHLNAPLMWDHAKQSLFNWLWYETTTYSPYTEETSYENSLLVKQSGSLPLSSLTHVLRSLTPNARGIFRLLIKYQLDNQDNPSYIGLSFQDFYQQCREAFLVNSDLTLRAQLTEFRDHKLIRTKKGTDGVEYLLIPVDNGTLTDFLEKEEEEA
T1 sequence (looked up) 2: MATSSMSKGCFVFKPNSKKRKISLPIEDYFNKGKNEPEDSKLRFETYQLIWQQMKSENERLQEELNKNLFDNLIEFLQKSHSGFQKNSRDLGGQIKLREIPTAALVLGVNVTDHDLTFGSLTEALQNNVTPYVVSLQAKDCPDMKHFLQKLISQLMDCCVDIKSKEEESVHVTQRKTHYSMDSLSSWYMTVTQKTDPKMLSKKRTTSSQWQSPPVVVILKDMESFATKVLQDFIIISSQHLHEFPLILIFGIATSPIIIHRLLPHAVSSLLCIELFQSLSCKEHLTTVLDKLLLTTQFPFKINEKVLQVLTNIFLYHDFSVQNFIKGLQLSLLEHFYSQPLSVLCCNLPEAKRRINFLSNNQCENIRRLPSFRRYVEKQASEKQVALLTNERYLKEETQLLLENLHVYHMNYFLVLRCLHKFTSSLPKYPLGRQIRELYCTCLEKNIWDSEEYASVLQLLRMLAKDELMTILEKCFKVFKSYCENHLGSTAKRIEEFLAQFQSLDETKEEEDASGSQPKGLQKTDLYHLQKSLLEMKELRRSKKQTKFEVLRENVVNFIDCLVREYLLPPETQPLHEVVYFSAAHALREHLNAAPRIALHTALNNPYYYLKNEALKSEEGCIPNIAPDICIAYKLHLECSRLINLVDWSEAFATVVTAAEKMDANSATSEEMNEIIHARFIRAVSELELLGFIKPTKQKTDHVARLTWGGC

T2: GSTORC2 (GST fused to full-length human ORC2) (human, UniProt Q13416 1-577)
T2 construct: domain: full-length; also called GSTO2; not shown: GST tag of pFB-GST (baculovirus) or pGEX-5X-3 (bacterial)
T2 sequence (looked up): T1 sequence (looked up) 1

B1: GSTORC5 (GST fused to human ORC5) (other, UniProt O43913 1-435, looked up)
chain: MPHLENVVLCRESQVSILQSLFGERHHFSFPSIFIYGHTASGKTYVTQTLLKTLELPHVFVNCVECFTLRLLLEQILNKLNHLSSSEDGCSTEITCETFNDFVRLFKQVTTAENLKDQTVYIVLDKAEYLRDMEANLLPGFLRLQELADRNVTVLFLSEIVWEKFRPNTGCFEPFVLYFPDYSIGNLQKILSHDHPPEYSADFYAAYINILLGVFYTVCRDLKELRHLAVLNFPKYCEPVVKGEASERDTRKLWRNIEPHLKKAMQTVYLREISSSQWEKLQKDDTDPGQLKGLSAHTHVELPYYSKFILIAAYLASYNPARTDKRFFLKHHGKIKKTNFLKKHEKTSNHLLGPKPFPLDRLLAILYSIVDSRVAPTANIFSQITSLVTLQLLTLVGHDDQLDGPKYKCTVSLDFIRAIARTVNFDIIKYLYDFL
notes: Baculovirus-expressed; not shown: GST tag of the pFB-GST vector
B2: ORC3N (ORC3N200), N-terminal 200 amino acids of human ORC3 (other)
chain: MATSSMSKGCFVFKPNSKKRKISLPIEDYFNKGKNEPEDSKLRFETYQLIWQQMKSENERLQEELNKNLFDNLIEFLQKSHSGFQKNSRDLGGQIKLREIPTAALVLGVNVTDHDLTFGSLTEALQNNVTPYVVSLQAKDCPDMKHFLQKLISQLMDCCVDIKSKEEESVHVTQRKTHYSMDSLSSWYMTVTQKTDPKML
notes: also called construct 3
B3: GSTORC4 (GST fused to human ORC4) (other, UniProt O43929 1-436, looked up)
chain: MSSRKSKSNSLIHTECLSQVQRILRERFCRQSPHSNLFGVQVQYKHLSELLKRTALHGESNSVLIIGPRGSGKTMLINHALKELMEIEEVSENVLQVHLNGLLQINDKIALKEITRQLNLENVVGDKVFGSFAENLSFLLEALKKGDRTSSCPVIFILDEFDLFAHHKNQTLLYNLFDISQSAQTPIAVIGLTCRLDILELLEKRVKSRFSHRQIHLMNSFGFPQYVKIFKEQLSLPAEFPDKVFAEKWNENVQYLSEDRSVQEVLQKHFNISKNLRSLHMLLMLALNRVTASHPFMTAVDLMEASQLCSMDSKANIVHGLSVLEICLIIAMKHLNDIYEEEPFNFQMVYNEFQKFVQRKAHSVYNFEKPVVMKAFEHLQQLELIKPMERTSGNSQREYQLMKLLLDNTQIMNALQKYPNCPTDVRQWATSSLSWL
notes: as for B1
B4: human ORC6, untagged (other, UniProt Q9Y5N6 1-252, looked up)
chain: MGSELIGRLAPRLGLAEPDMLRKAEEYLRLSRVKCVGLSARTTETSSAVMCLDLAASWMKCPLDRAYLIKLSGLNKETYQSCLKSFECLLGLNSNIGIRDLAVQFSCIEAVNMASKILKSYESSLPQTQQVDLDLSRPLFTSAALLSACKILKLKVDKNKMVATSGVKKAIFDRLCKQLEKIGQQVDREPGDVATPPRKRKKIVVEAPAKEMEKVEEMPHKPQKDEDLTQDYEEWKRKILENAASAQKATAE

Legend:
[1] = biological target: T3, ORC2, ORC3 and ORC4 co-expressed with GSTORC5 (human, UniProt Q13416 1-577; Q9UBD5 1-711; O43929 1-436); assay: GST pull-down on glutathione beads from Sf9 cells expressing human ORC1-6 with ORC5 GST tagged; immunoblot
T3 construct: The set of untagged subunits that come down with GSTORC5; written as one partner because the pairwise tests of GSTORC5 with each of them were negative; also called ORC2, 3 and 4
Procedure: (§1) The cell suspension was homogenized in a Dounce homogenizer using a B-type pestle followed by centrifugation at 3000 rpm for 7 min. The pellet containing the nuclei was lysed in buffer H/0.15 (50 mM HEPES.KOH, pH 7.5; 150 mM KCl; 0.02% NP-40; 5 mM Magnesium acetate; 1 mM EDTA; 1 mM EGTA; 10% glycerol, 1 mM PMSF, 2 μg/ml pepstatin, 2 μg/ml leupeptin, 5 μg/ml aprotinin, 1 mM DTT). The resulting suspension was subjected to ammonium sulfate precipitation (starting with 10% followed by 30% and finally 50%). The pellet following 50% ammonium sulfate cut was resuspended in buffer H/0.0 (no salt) and then dialyzed overnight against buffer H/0.15. […] Proteins were eluted using reduced glutathione elution buffer (50 Mm Tris.Cl, pH 8.0; 20 mM reduced glutathione; 0.01% NP-40; 100 mM NaCl). Gel filtration of glutathione eluate using fast protein liquid chromatography Superose 12 (Amersham Pharmacia Biotech Inc, Piscataway, N.J.) column was performed as described previously (Dhar, S. K. & Dutta, A. J Biol Chem 275:34983-8, 2000).
(§2) To purify recombinant six protein human origin recognition complex, Sf9 insect cells were infected with baculoviruses expressing human ORC1-6 subunits.

ORC2+3 core complex [2] = biological target: T1, ORC2+3 core complex; assay: co-expression of GSTORC5, ORC2 and ORC3 in Sf9 cells, glutathione beads, immunoblot
Procedure: as §1, with “Cells were harvested 48 hours post-infection. The cell pellet was washed once in cold phosphate buffered saline (PBS), and subsequently resuspended in hypotonic lysis buffer (10 mM Tris.Cl, pH 7.9; 10 mM KCl; 1.5 mM MgCl₂; 1 mM Phenylmethylsulfonyl Fluoride (PMSF); 2 μg/ml pepstatin; 2 μg/ml leupeptin; 5 μg/ml aprotinin; 1 mM DTT). The cell” for “The cell”

[3] = biological target: T4, GST (glutathione S transferase), control protein (UniProt P08515 1-218 = GST); assay: GST pull-down of 35S-labelled in vitro translated ORC3N (control of the GSTORC2C experiment)
T4 construct: Negative control in the pull-downs; also called control GST
Description: (§3) Pull-down assays on glutathione agarose beads were done as described in (Lin, Y. L., et al., J Biol Chem 271:17190-8, 1996).

[4] = biological target: T2, GSTORC2 (GST fused to full-length human …); assay: GST pull-down of 35S-labelled in vitro translated ORC3N on bacterially expressed GSTORC2
Description: as §3

[5] = biological target: B1; assay: glutathione beads from Sf9 cells co-expressing GSTORC5, ORC2, ORC4 and ORC3N; western blot
Procedure: as §1

ORC2+3 core complex [6] = biological target: T1, ORC2+3 core complex; assay: co-expression of GSTORC4, ORC2 and ORC3 in Sf9 cells, glutathione beads, immunoblot
Procedure: as §1, with “Cells were harvested 48 hours post-infection. The cell pellet was washed once in cold phosphate buffered saline (PBS), and subsequently resuspended in hypotonic lysis buffer (10 mM Tris.Cl, pH 7.9; 10 mM KCl; 1.5 mM MgCl₂; 1 mM Phenylmethylsulfonyl Fluoride (PMSF); 2 μg/ml pepstatin; 2 μg/ml leupeptin; 5 μg/ml aprotinin; 1 mM DTT). The cell” for “The cell”

[7] = biological target: T5, complex of GSTORC5, ORC2, ORC3 and ORC4 (human, UniProt O43913 1-435; Q13416 1-577; Q9UBD5 1-711; O43929 1-436); assay: GST pull-down on glutathione beads from Sf9 cells expressing human ORC1-6 with ORC5 GST tagged; immunoblot
T5 construct: Complex purified on glutathione beads from Sf9 cells; also called GSTORC5, 2, 3 and 4; ORC2, 3, 4 and 5 core complex; not shown: GST tag of the pFB-GST vector
Procedure: as §1, §2

T4 sequence (P08515 whole entry): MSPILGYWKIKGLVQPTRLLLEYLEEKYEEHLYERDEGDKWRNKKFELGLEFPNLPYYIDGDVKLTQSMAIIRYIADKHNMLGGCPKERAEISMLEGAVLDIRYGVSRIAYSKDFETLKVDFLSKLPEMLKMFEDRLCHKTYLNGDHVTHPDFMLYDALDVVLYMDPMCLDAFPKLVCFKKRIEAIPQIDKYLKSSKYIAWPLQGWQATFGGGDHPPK

B1
binding result [1]: binds | binding result (ORC2+3 core complex [2]): binds

B2
binding result [3]: no binding | binding result [4]: binds | binding result [5]: no binding

B3
binding result (ORC2+3 core complex [6]): no binding

B4
binding result [7]: no binding
